Key:
Assay type in all cases: cell-based
Jurkat cells = assay: Surface expression of CD40L by FACS in lentivirally transduced Jurkat cells; conditions: FACS
Procedure: 50,000 Jurkat cells were transduced with lentiviruses corresponding to the constructs. OT-001661, OT-001685, OT-001662, or OT-001666 and cultured for 48h. Cells were split and incubated with ligands for 24h before analysis by flow cytometry.
Jurkat cells were treated with one of the following: 1 μM Shield-1, 50 μM TMP, 1 μM Bazedoxifene (BZD) or vehicle control. Surface expression of CD40L was measured using FACS and the results are show in Table 9. All values were normalized to mode.

HEK-Blue™ CD40 cells = assay: HEK-Blue CD40 SEAP reporter co-culture with transduced Jurkat cells; conditions: ligand 24 h (1 μM Shield-1, 50 μM TMP or 1 μM Bazedoxifene), recombinant soluble CD40L as standard
Procedure: Jurkat cells transduced with OT-001661, OT-001685, OT-001662, OT-001666, or OT-001667 were co-cultured with HEK-Blue™ CD40 cells (Invivogen, San Diego, Calif.). Cocultures were treated with ligands (1 μM Shield-1, 50 μM TMP, 1 μM Bazedoxifene (BZD) or vehicle control) for 24 hours and the secreted embryonic alkaline phosphatase (SEAP) reporter levels were measured in the media. All vehicle treated samples had background SEAP activity. Recombinant soluble CD40L was used as the standard in the experiments.

CD8 positive T cells = assay: CD40L MFI by FACS in transduced CD8 positive T cells
Procedure: Regulation of ecDHFR (R12Y, Y100I) DRD based construct OT-001662 and ER (N413D) DRD based construct OT-001666 were tested in CD8 positive T cells. For OT-001662, expressing cells, ligand was added 6 days after viral transduction at a dose of 50 μM TMP. OT-001666 expressing cells were treated with 0.5 μM Bazedoxifene or vehicle control, 5 days after transduction. Approximately 15-30k cells were analyzed per sample by FACS. All samples were compared to empty vector control as well as the constitutively expressed construct, OT-001661. Table 11 provides the mean fluorescence intensities (MFIs) obtained with each sample.

CD8+ T cells = assay: Ligand dose response, % CD40L positive cells, CD8+ T cells
Procedure: Ligand dose response curve experiments were performed with increasing doses of ligand using OT-001662 and OT-001666 constructs in both CD4+ as well as CD8+ T cells.
The experiments were conducted using three different volumes of virus for transduction i.e. 0.5, 2 and 10 μL.

[1] = system: Monocyte derived dendritic cells (mDC); assay: Cytokine production in mDC-T cell co-culture (MSD); conditions: for Cytokine Production IFNg / Cytokine Production IL12 / Cytokine Production TNFa: mDC-T cell co-culture 2 days
Description: In order to engage dendritic cells in an immune response, dendritic cells must be converted to a functional state by an antigen-specific CD4+ helper T cell. Activation of the dendritic cells may be followed by the activation of CD8+ T cells by the dendritic cells, a process referred to as dendritic cell licensing. Engagement of the CD40L expressed on the CD4+ cells with the CD40 on the dendritic cells can result in (i) dendritic cell stimulation-measured by expression of co-stimulatory and MHC molecules (ii) proinflammatory cytokine release (e.g. IL12, TNFα and INFγ) (iii) epitope spreading. To measure the effect of CD40L expression that is tuned by the biocircuits of the present disclosure, CD4+ T cells or Jurkat cells expressing any of the CD40L constructs described herein were co-cultured with dendritic cells.
Dendritic cell function in response to co-culture with T cells expressing CD40L was evaluated in the presence of ligand or corresponding vehicle control. Monocyte derived dendritic cells (mDC) (CD14+) were isolated from fresh blood and cultured for 5 days with IL-4 (7.5 ng/mL) and GM-CSF (20 ng/mL). The mDCs were frozen down after the 5 day culture. T cells were transduced with OT-001662 and expanded for 9 days before being frozen down. mDCs and T cells were thawed and co-cultured 1:10 DC: T cell ratio (i.e. 5×10^4 DCs: 5×10^5 T cells). mDC and T cells were co-cultured for 2 days before cells were collected for flow cytometry and supernatants were collected for cytokine analysis. For evaluation of regulated constructs, ligand (various doses of TMP) was added at the time initiating the co-culture and was kept in the co-culture for 2 days. Cytokines were analyzed by MSD after a single freeze thaw cycle. All cells were cultured in complete RPMI with 10% FBS during the course of the experiment. SR indicates stabilization ratio.

T cells (CD4+ and CD8+) = assay: Regulation of CD40L in T cells by different drug responsive domains
T cells = assay: Dose response of TMP, Bazedoxifene or Raloxifene, % CD40L positive T cells; conditions: T cells
Procedure: T cells were transduced with OT-001662 or OT-001666. On day 4, cells were treated with increasing doses of TMP for T cells expressing OT-001662. Cells expressing OT-001666 were treated either with increasing concentrations of Bazedoxifene or Raloxifene. The data are shown in Table 30 as the percentage of CD40L positive T cells.

[2] = ligand 24 h (1 μM Shield-1 OT-001685, 50 μM TMP OT-001662, 1 μM Bazedoxifene OT-001666)
[3] = vehicle 24 h (Ethanol 0.2% OT-001685, DMSO 0.5% OT-001662, DMSO 0.01% OT-001666)

B1: OT-001662: CD40L construct with ecDHFR (M1del, R12Y, Y100I) DRD, ligand TMP (protein)
chain: MSGISLIAALAVDYVIGMENAMPWNLPADLAWFKRNTLNKPVIMGRHTWESIGRPLPGRKNIILSSQPGTDDRVTWVKSVDEAIAACGDVPEIMVIGGGRVIEQFLPKAQKLYLTHIDAEVEGDTHFPDYEPDDWESVFSEFHDADAQNSHSYCFEILERRHMIETYNQTSPRSAATGLPISMKIFMYLLTVFLITQMIGSALFAVYLHRRLDKIEDERNLHEDFVFMKTIQRCNTGERSLSLLNCEEIKSQFEGFVKDIMLNKEETKKENSFEMQKGDQNPQIAAHVISEASSKTTSVLQWAEKGYYTMSNNLVTLENGKQLTVKRQGLYYIYAQVTFCSNREASSQAPFIASLCLKSPGRFERILLRAANTHSSAKPCGQQSIHLGGVFELQPGASVFVNVTDPSQVSHGTGFTSFGLLKL
Jurkat cells; [2]
  CD40L positive percent of live cells: 98.4%
  Geometric Mean of CD40L fluorescent intensity: 6068
Jurkat cells; [3]
  CD40L positive percent of live cells: 0.023%
  Geometric Mean of CD40L fluorescent intensity: 27.9
HEK-Blue™ CD40 cells
  Soluble CD40L: 8657.75 pg/mL
CD8 positive T cells
  Expression of CD40L in the presence of ligand, comparison of constructs: higher than the ER DRD based construct
CD8 positive T cells; +Ligand (50 μM TMP OT-001662; 0.5 μM Bazedoxifene OT-001666)
  CD40L MFI: 283
CD8 positive T cells; Vehicle
  CD40L MFI: 29.0
CD8+ T cells; 0.5 μL virus, TMP 0.05 nM
  % CD40L positive cells: 0.16%
CD8+ T cells; 0.5 μL virus, TMP 0.5 nM
  % CD40L positive cells: 0.17%
CD8+ T cells; 0.5 μL virus, TMP 5 nM
  % CD40L positive cells: 0.12%
CD8+ T cells; 0.5 μL virus, TMP 50 nM
  % CD40L positive cells: 0.19%
CD8+ T cells; 0.5 μL virus, TMP 500 nM
  % CD40L positive cells: 0.66%
CD8+ T cells; 0.5 μL virus, TMP 5000 nM
  % CD40L positive cells: 9.21%
CD8+ T cells; 0.5 μL virus, TMP 50000 nM
  % CD40L positive cells: 25.2%
CD8+ T cells; 2 μL virus, TMP 0.05 nM
  % CD40L positive cells: 0.2%
CD8+ T cells; 2 μL virus, TMP 0.5 nM
  % CD40L positive cells: 0.34%
CD8+ T cells; 2 μL virus, TMP 5 nM
  % CD40L positive cells: 0.3%
CD8+ T cells; 2 μL virus, TMP 50 nM
  % CD40L positive cells: 0.64%
CD8+ T cells; 2 μL virus, TMP 500 nM
  % CD40L positive cells: 6.84%
CD8+ T cells; 2 μL virus, TMP 5000 nM
  % CD40L positive cells: 40.6%
CD8+ T cells; 2 μL virus, TMP 50000 nM
  % CD40L positive cells: 51%
CD8+ T cells; 10 μL virus, TMP 0.05 nM
  % CD40L positive cells: 0.95%
CD8+ T cells; 10 μL virus, TMP 0.5 nM
  % CD40L positive cells: 1.08%
CD8+ T cells; 10 μL virus, TMP 5 nM
  % CD40L positive cells: 1.02%
CD8+ T cells; 10 μL virus, TMP 50 nM
  % CD40L positive cells: 1.07%
CD8+ T cells; 10 μL virus, TMP 500 nM
  % CD40L positive cells: 5.53%
CD8+ T cells; 10 μL virus, TMP 5000 nM
  % CD40L positive cells: 47.4%
CD8+ T cells; 10 μL virus, TMP 50000 nM
  % CD40L positive cells: 59.4%
[1]; mDC-T cell co-culture
  IL12, TMP dose response: dose responsive increases
  TNFα, TMP dose response: dose responsive increases
[1]; DMSO
  Cytokine Production IFNg: 3791.2 pg/mL
  Cytokine Production IL12: 0.2535 pg/mL
  Cytokine Production TNFa: 82.2712 pg/mL
[1]; TMP (0.1 μM)
  Cytokine Production IFNg: 7432.13 pg/mL
  Cytokine Production IL12: 0.0705 pg/mL
  Cytokine Production TNFa: 130.9627 pg/mL
[1]; TMP (0.5 μM)
  Cytokine Production IFNg: 3587.14 pg/mL
  Cytokine Production TNFa: 83.86 pg/mL
[1]; TMP (2 μM)
  Cytokine Production IFNg: 16375.2 pg/mL
  Cytokine Production IL12: 19.372 pg/mL
  Cytokine Production TNFa: 248.7836 pg/mL
[1]; TMP (10 μM)
  Cytokine Production IFNg: 13539.7 pg/mL
  Cytokine Production IL12: 59.254 pg/mL
  Cytokine Production TNFa: 251.2844 pg/mL
[1]; mDC-T cell co-culture, 10 μM TMP
  levels of IFNγ: comparable to the levels observed with the constitutive construct OT-001661
[1]; mDC-T cell co-culture, lower doses of TMP
  IFNγ, TMP dose response: dose responsive increase
T cells (CD4+ and CD8+); All Cells, 10 uM TMP
  CD40L positive: 89.7%
  MFI: 2122
T cells (CD4+ and CD8+); All Cells, DMSO
  CD40L positive: 7.6%
  MFI: 140
T cells (CD4+ and CD8+); CD4+, 10 uM TMP
  CD40L positive: 94.4%
  MFI: 2608
T cells (CD4+ and CD8+); CD4+, DMSO
  CD40L positive: 8.8%
  MFI: 152
T cells (CD4+ and CD8+); CD8+, 10 uM TMP
  CD40L positive: 74.9%
  MFI: 1070
T cells (CD4+ and CD8+); CD8+, DMSO
  CD40L positive: 91.8%
  MFI: 2.1
T cells; increasing doses of TMP
  % CD40L positive T cells, dose response: dose dependent increase
T cells; TMP Dose 0.01 μM
  Percent of cells expressing CD40L: 8.74%
T cells; TMP Dose 0.1 μM
  Percent of cells expressing CD40L: 13.3%
T cells; TMP Dose 1 μM
  Percent of cells expressing CD40L: 38.8%
T cells; TMP Dose 10 μM
  Percent of cells expressing CD40L: 71%
T cells; TMP Dose 100 μM
  Percent of cells expressing CD40L: 73.3%
